Assay results: publication doi:10.1101/651463 (bioRxiv, 2019)

Tests used:
C5aR1-βarr1 complex = C5aR1-βarr1 complex (Homo sapiens (Human). ; Rattus …, UniProt P21730;P29066); assay: co-IP
V2R-βarr1 complex = V2R-βarr1 complex (Homo sapiens (Human). ; Rattus …, UniProt P30518;P29066); assay: co-IP

binding result (C5aR1-βarr1 complex): binds
binding result (V2R-βarr1 complex): binds
B1: Intrabody30 (scFv, V domains shown)
VH: EVQLVESGGGLVQPGGSLRLSCAASGFNVYSSSIHWVRQAPGKGLEWVASISSYYGYTYYADSVKGRFTISADTSKNTAYLQMNSLRAEDTAVYYCARSRQFWYSGLDYWGQGTLVTVSS
VL: DIQMTQSPSSLSASVGDRVTITCRASQSVSSAVAWYQQKPGKAPKLLIYSASSLYSGVPSRFSGSRSGTDFTLTISSLQPEDFATYYCQQYKYVPVTFGQGTKVEIK
